Numbering of substitutions follows the chain as printed.
Target: mouse c-Myc (mouse, UniProt P01108-2)
Assay: cell-based or functional assay

B1: mouse Mxi-SR protein (other)
chain: MERVRMINVQRLLEAAEFLERRERECEHGYASSFPSMPSPRLQHSKPPRRLSRAQKHSSGSSNTSTANRSTHNELEKNRRAHLRLCLKRLKVLIPLGPDCTRHTTLGLLNKAKAHIKKLEEAERKSQHQLENLEREQRFLKRRLEQLQGPQEMERIRMDSIGSTISSDRSDSEREEIEVDVESTEFSHGKADSVSTTSISDLDDHSSLQSVGSDEGYSSASVKLSFAS
- fold suppression of c-myc/RAS foci formation, REF cooperation assay: 8.1 fold suppression

B2: human MXI protein (other)
chain: B1 chain with R5K, R142W, A191V, S193N, V194I, L202I, Q209P, V211I, A227T
- fold suppression of c-myc/RAS foci formation, REF cooperation assay: 5.3 fold suppression

B3: mouse Mxi-WR protein (other)
chain: MPSPRLQHSKPPRRLSRAQKHSSGSSNTSTANRSTHNELEKNRRAHLRLCLKRLKVLIPLGPDCTRHTTLGLLNKAKAHIKKLEEAERKSQHQLENLEREQRFLKRRLEQLQGPQEMERIRMDSIGSTISSDRSDSEREEIEVDVESTEFSHGKADSVSTTSISDLDDHSSLQSVGSDEGYSSASVKLSFAS
- fold suppression of c-myc/RAS foci formation, REF cooperation assay: 1.74 fold suppression

B4: mouse Mxi-Δrep (other)
chain: MERFPSMPSPRLQHSKPPRRLSRAQKHSSGSSNTSTANRSTHNELEKNRRAHLRLCLKRLKVLIPLGPDCTRHTTLGLLNKAKAHIKKLEEAERKSQHQLENLEREQRFLKRRLEQLQGPQEMERIRMDSIGSTISSDRSDSEREEIEVDVESTEFSHGKADSVSTTSISDLDDHSSLQSVGSDEGYSSASVKLSFAS
- fold suppression of c-myc/RAS foci formation, REF cooperation assay: 1.57 fold suppression

B5: mouse Mxi-SR-pro (other)
chain: B1 chain with L19P
- fold suppression of c-myc/RAS foci formation, REF cooperation assay: 1.78 fold suppression

Source: patent US5811298, “Rep-max protein having anti-oncogenic activity and uses thereof” (Albert Einstein College of Medicine of Yeshiva University, …, dated 1998)
